Assay: soluble on expression in E. coli; label from the status in PepcDB or PDB records

Row | Sequence | soluble on expression in E. coli
1 | MSSRIEQIIEEIEEYIDKDCKFQPLSSTKIIVNKEHLDELLRELRMKTPDEIKRYQKIISNRDAILADAKAKADAMIEEAQVQTTELVSEHEIMQQAYAQANEIVTQATAQAQEIIDNATMDANEIRMGAIQYTDDLLANAESIIGHTLDSYTTKYDGLINSLQECYDVVRTNRAELESPTPEEGQEFSGEA | not soluble
2 | MFFQSIYQMMSAGTDLNINIRRTDGKLSVAVIPKRTTLKDEAGQAIVPLILNGTPMELDGQFLQIITTPLQKAQGILTNLETFEQQARLAATQGKAAGTANDKKTKEAREKQEKMEKLLKRAEEAFTAGRYSEATTCFRQAKVLADTDRQKQIEARIQEVQKESSQGCLFPETDTQPLPQQPPANGTANGNRPDGQMRMFTSQPPQQPVQQAIPQPVQQPVPRPQIVQPQPVPQYYPGTPQPQPMYEGYCRNPANGSPQQTAEQPQTYFLQPGGQYPQTQPWQQPQPVPLQPQATVIQTTRENTGREYQSPPQPAAEALTFDKDDESDRELLREDPYAEYIDFPQECRMKDETQAELICC | not soluble
3 | MSLNSKDIAKIVGVSRSTVSRVINNYPDIPQATREKVLKAIKEYNYYPNASARRLAGMKSSTLGIFIIDIKDNEKPHHVIENNEDLLYGNSYFSPFINAFIDQSNKAQYHVLVSTIYSSDELWKIQSAFYEKRIDGAVIIGSSSIDYSKIFEIMDKDSITVAVDLDMEKENTGTVMSVNINNYGGVSDAIDYLVELGHKDIAVITGDLNKLSGKIRFESFKDALLRHGLPLNNDFIAYGDFTENSGYEGMKKILASGKKPTAVFTSNDTMAIGAYRAIKEYGLKIPEDISVMGFDNSYISQYMSPPLTTVNVSLPEIAKCSIELLLDSINNKEIKNRQKTVNVQIVKRNSCKKEGHHHHHH | soluble
4 | MSLQITGVNQYHLEHRLEEPFHPTWIPGYPQSTHELELFEIETDAGITGYGASPSFAGGLDYETPLELFLTGEDPHNVDGILGKLETVNLVGPRPWHIEMALWDIIGKDAGKPVCELFGAEQRAIPAYASSGEIQPADERIDYVEQRIDEGFDAVKLRVTETDHIETVRAVRESFPDLTLMVDANKGWAVRVMEEPTEWSFSDALEFARELDAVGGVEWLEEPLHRHDYDGYARLRDAVDVNIAGGEFNNGIHHFREFVDRGSLDILQPDAALATGIRRAVDVARMGEANGLQFVPHTWTNAVGFAANLHVMTAVGSPWCEYPMEPPWTPDVWSFMLEDGFEHDDGVVRAPSKPGLGIEIPDKVLEDAGEGHHHHHH | soluble
5 | MGSDKIHHHHHHVKKQVPDKTELGRTRVLVVGDVMLDRYWFGAVERISPEAPVPVVRVTREEERLGGAANVALNVKSLGARATLLTVVGDDEPAHTLKRLLERDGIDTLLGSDPQLYTIVKLRVIGRSQQLIRIDFENQPDHEVLAEMLQDYETTLAEQDAVLFSDYGKGGLEHIPRMIELARRSGKPVLVDPKGSDYRRYAGASVITPNRAELAQVVGAWSSEAQLRERAQALRVELGLEALLLTRSEEGMTLFDARGDTSVPAQAREVFDVTGAGDTVIATMAAMIACGLSPREAMPLANRAGSIVVGKFGTASVSYDELFE | not soluble
6 | MSLELVIGTKRWSSWSLRPWLALKRAGVDFTELEVALRRGEATGDEIGCISPSRLAPALRDGDLVIWDSLAICEYLAERYPDAKLWPDDPVLRALGRSACAEMHSGFQALRGECPMALDEPPRKLDLSEATQKNVRRIVALWTGLLARSHGPFLLGDWSIADAFYTPVATRFRTYDVRLADYGDAGAAQGYSDRLLQTPEFLEWERAAQAGEGHHHHHH | soluble
7 | MEANILSTHKSKILVFKGWSERQKSVVFIPIEAVLEGHNIEVQFFEKPNEPVTFQVKDKNGNIVFQDMTTPDNLEIYQIDVSGFKTGQYELLYIEKDVTLIGEFEIE | not soluble
8 | MQEVAMSSQEASKMLRTYNIAWWGNNYYDVNELGHISVCPDPDVPEARVDLAQLVKTREAQGQRLPALFCFPQILQHRLRSINAAFKRARESYGYNGDYFLVYPIKVNQHRRVIESLIHSGEPLGLEAGSKAELMAVLAHAGMTRSVIVCNGYKDREYIRLALIGEKMGHKVYLVIEKMSEIAIVLDEAERLNVVPRLGVRARLASQGSGKWQSSGGEKSKFGLAATQVLQLVETLREAGRLDSLQLLHFHLGSQMANIRDIATGVRESARFYVELHKLGVNIQCFDVGGGLGVDYEGTRSQSDCSVNYGLNEYANNIIWAIGDACEENGLPHPTVITESGRAVTAHHTVLVSNIIGVERNEYTVPTAPAEDAPRALQSMWETWQEMHEPGTRRSLREWLHDSQMDLHDIHIGYSSGIFSLQERAWAEQLYLSMCHEVQKQLDPQNRAHRPIIDELQERMADKMYVNFSLFQSMPDAWGIDQLFPVLPLEGLDQVPERRAVLLDITCDSDGAIDHYIDGDGIATTMPMPEYDPENPPMLGFFMVGAYQEILGNMHNLFGDTEAVDVFVFPDGSVEVELSDEGDTVADMLQYVQLDPKTLLTQFRDQVKKTDLDAELQQQFLEEFEAGLYGYTYLEDELEHHHHHH | not soluble
9 | MAGDPMNVNVEDNAKVTLTSQGATKIYKTPSNHVEQYQTFNLKDNAYLEYVADPIIAYENAKFYQHNTFNLNNSSSLFYTDILTPGYSKTGEAFKYQYMHLINEIYIEDELVTYDNLLLNPNKQSINEIGYMEHYSHYGSAYFIHEDVNQKLIDSVYETISSYSNTFDCRVAISQLPTHGFAVRIFAYRTQIIEKILGIIQSYIAENIYDRKLDFLRKYLEHHHHHH | not soluble
10 | MGSDKIHHHHHHMPTTMTTNIKNNDFKDVVFNRQSVRQFDPTVKIDREELQTIIDETISAPSACNLQSWHFVVADSADGKAKAKSVLMPFNYPQIDSCSAMIFVLGDTQSHLVYRDVWNKACEEGRITPEKRDQIFKTFLPMYENASPEFLQADAMIDSSMAAMQLLLIARAHGYDANPIAGYAADKVATTFGLDAKRYVPVMAIALGKAASEPITTTRYAGTQVTEFI | not soluble
11 | MSLNGITKYVEKLTFFNIQSGKQVEFNRDEKVILSNVPFIQQLPELDRGCEVTSLAMMLQYAGITVDKMKLANEIKKVDFMNDGVRGNPNEGFVGNIYTFSESGYGVYHGPLFQLAKKYLPNKAVDLTGKSIEELYKSVKAGQPVVIITNATFAPLDEDEFTTWETNNGDVSITYNEHCVVLIGYDQESVYIRDPLKDSLDVKVPREKFEQAWVQMGSQAISYVKRSKEGHHHHHH | soluble
12 | MGSDKIHHHHHHENLYFQGMWKSISQVLAEQFGAYYFIKHKEKLYSGEMNEIWLINDEVQTVFVKINERSYRSMFRAEADQLALLAKTNSINVPLVYGIGNSQGHSFLLLEALNKSKNKQSSFTIFAEKIAQLHQIQGPDKYGLDFDTWLGPIYQPNDWQTSWAKFFSENRIGWQLQICKEKGLIFGNIDLIVQIVADTLSKHNPKPSILHGNLWIENCIQVDDKIFVCNPACYWGDRECDIAFSSLFEPFPTNFYQRYNEIYPLEEGYLERKLIYQLYYLLNFSYRYYNKKQSYVSLTQKLINQILHKIDK | soluble
13 | MERAEILGVGTELLYGETLDTNTAEIARSLKPYALKVERTLRVADEVAPLAREVEEAFARARLVVLSGGLGPTPDDVTREAVALALGEPLELDEAVLGEIEAFFRARGRAMPEANRKQAMRIPSATWLKNPRGTAPGWWVRKGGKDLVLLPGPPPEWRPMWQEVLPRLGLPRRPYAERVLKTWGIGESEIVERLGPLFVRGEEVEVGTYPKVHGVEVVVRGREDRVAELAERIKKKLLKEVWGEGEMTLAEAVKRRMEREGATLSTMESLTGGLLGAEITRVPGASRFYLGGVVSYSVGAKARFGVPQDLLSRTVSAETARAMAEAARSLFGSTYALATTGVAGPDPLEGEPPGTVYVALAGPTGAEVRRYRFPGDRETVRLRSVYAALALLVT | soluble
14 | VGKMTPDFLGSLSTTLSWKNLSLHIATDMRFGGLVASYSNLYGTQAGWIKSSLKWRDPEHGGLSWTSQYGDSKGISYGDGVIPDGVFKNGTFATLVDGTKMDVSGMSYKQLVAEGKLEPTHAGTYHVNRAAWGQNTIFDTWVHELNYIALREITLSYRFPKSVASKFGAQGLGLSFSARNLGYLYNSLPNHLNPESVRGNTASEFRIRGYEPYTANYMMTINVDF | not soluble
15 | MSIVMSAGKGVTQVVERCEAAKESGFLDLSSCQLMYMADAVYMLIKGYEITKVSIQDNGFKKFPKKFVIKFPTATILNMANNEISEIPEEVATWTSLKGLNAAKNKISKFPEPFLQLKNLIYLDLNGNQLEEIDVDLFYSSLPALIKLNLSGNEGLGDETKKKLKALKPEKLDLIL | not soluble
16 | AMAISDPQSSTRNELETGSSSACPKVIYIFARASTEPGNMGISAGPIVADALERIYGANDVWVQGVGGPYLADLASNFLPDGTSSAAINEARRLFTLANTKCPNAAIVSGGYSQGTAVMAGSISGLSTTIKNQIKGVVLFGYTKNLQNLGRIPNFETSKTEVYCDIADAVCYGTLFILPAHFLYQTDAAVAAPRFLQARIG | soluble
17 | MGSDKIHHHHHHGNSKSRNDRTETVDKEVIKAPEFDADSAYQYIQVQADFGPRVPNTQAHKECGEYLAGQLEKFGAKVYNQYADLIAYDGTILKSRNIIGAYKPESKKRILLCAHWDSRPYADNDPDPKNHHTPILGVNDGASGVGVLLEIARQIQKEQPALGIDIVFFDSEDYGIPEFYDGKYKQDTWCLGSQYWARTPHVQNYNARYGILLDMVGGKDATFYYEGYSARTARSEMKKIWKKAHELGYGKYFVKEDGGETVDDHIYVNKLARIPCVDIINYDAGNPQSSFGSFWHTVNDTMENIDRNTLKAVGQTVMDVIYNEK | not soluble
18 | MGSDKIHHHHHHMKAISANLQRLLAESGMKQSHLATILNIPTSSLNEYVKGKSLPKIGNIQKIADYFGLQKSDIDPRFASKKDSSTLDKINHIAKQLEMKRQIKVLDFCYQQSKEQDETASLSASDETTEDKVADKSNHTQYQKVVDSFIAKELNDQTIIHWDNVIKAKDLYQTFGRQYENIQIYGEVSAGTGIWVGHEKQETIKYPIPIPEHDIALIVNGNSMEPLFYNGDVIFVKKTKAIHHGQIIVVIVNNEAYVKKLYRKNKEIRLISLNPDYDDIILKEDDTIEVIGTVIT | not soluble
19 | MRLEFSIYRYNPDVDDAPRMQDYTLEADEGRDMMLLDALIQLKEKDPSLSFRRSCREGVCGSDGLNMNGKNGLACITPISALNQPGKKIVIRPLPGLPVIRDLVVDMGQFYAQYEKIKPYLLNNGQNPPAREHLQMPEQREKLDGLYECILCACCSTSCPSFWWNPDKFIGPAGLLAAYRFLIDSRDTETDSRLDGLSDAFSVFRCHSIMNCVSVCPKGLNPTRAIGHIKSMLLQRNA | soluble
20 | MRIIMPVEFSRIVRDVERLIAVEKYSLQGVVDGDKLLVVGFSEGSVNAYLYDGGETVKLNREPINSVLDPHYGVGRVILVRDVSKGAEQHALFKVNTSRPGEEQRLEAVKPMRILSGVDTGEAVVFTGATEDRVALYALDGGGLRELARLPGFGFVSDIRGDLIAGLGFFGGGRVSLFTSNLSSGGLRVFDSGEGSFSSASISPGMKVTAGLETAREARLVTVDPRDGSVEDLELPSKDFSSYRPTAITWLGYLPDGRLAVVARREGRSAVFIDGERVEAPQGNHGRVVLWRGKLVTSHTSLSTPPRIVSLPSGEPLLEGGLPEDLRRSIAGSRLVWVESFDGSRVPTYVLESGRAPTPGPTVVLVAGGPFAEDSDSWDTFAASLAAAGFHVVMPNYRGSTGYGEEWRLKIIGDPCGGELEDVSAAARWARESGLASELYIMGYSYGGYMTLCALTMKPGLFKAGVAGASVVDWEEMYELSDAAFRNFIEQLTGGSREIMRSRSPINHVDRIKEPLALIHPQNDSRTPLKPLLRLMGELLARGKTFEAHIIPDAGHAINTMEDAVKILLPAVFFLATQRERR | soluble
21 | MMKPPSAIMETALYADDLDAAEAFYRDVFGLEMVLKLPGQLVFFKCGRQMLLLFDPQESSRADANNPIPRHGAVGQGHFCFYADDKAEVDEWKTRFEALEIPVEHYHRWPNGSYSVYIRDPAGNSVEVGEGKLWGFE | not soluble

Reference: the DeepSol protein solubility set
